Source: patent publication EP3583122A1
Numbering of substitutions follows the chain as printed. Numbers in names are those of the source. Read-outs that look alike come from different tables or passages of the source.

How the values were obtained:
[1] = target: EBOV GP[change] (Ebola virus) (UniProt Q05320)
[2] = target: EBOV GP[change] (Ebola virus) (UniProt Q05320); remark: listed apart in the source
[3] = target: EBOV GP[change] (Ebola virus) (UniProt Q05320); remark: listed apart in the source
[4] = target: EBOV GP[change] (Ebola virus) (UniProt Q05320); remark: listed apart in the source
[5] = target: EBOV GP[change] (Ebola virus) (UniProt Q05320); remark: listed apart in the source
[6] = target: EBOV GP[change] (Ebola virus) (UniProt Q05320); remark: listed apart in the source
[7] = target: EBOV GP[change] (Ebola virus) (UniProt Q05320); remark: listed apart in the source
[8] = target: EBOV GP[change] (Ebola virus) (UniProt Q05320); remark: listed apart in the source
[9] = target: EBOV GP[change] (Ebola virus) (UniProt Q05320); remark: listed apart in the source
[10] = target: EBOV GP[change] (Ebola virus) (UniProt Q05320); remark: listed apart in the source
[11] = target: EBOV GP[change] (Ebola virus) (UniProt Q05320); remark: listed apart in the source

Chain of EBOV GP[change] (Ebola virus) (Q05320 33-501, chain 1 of 2): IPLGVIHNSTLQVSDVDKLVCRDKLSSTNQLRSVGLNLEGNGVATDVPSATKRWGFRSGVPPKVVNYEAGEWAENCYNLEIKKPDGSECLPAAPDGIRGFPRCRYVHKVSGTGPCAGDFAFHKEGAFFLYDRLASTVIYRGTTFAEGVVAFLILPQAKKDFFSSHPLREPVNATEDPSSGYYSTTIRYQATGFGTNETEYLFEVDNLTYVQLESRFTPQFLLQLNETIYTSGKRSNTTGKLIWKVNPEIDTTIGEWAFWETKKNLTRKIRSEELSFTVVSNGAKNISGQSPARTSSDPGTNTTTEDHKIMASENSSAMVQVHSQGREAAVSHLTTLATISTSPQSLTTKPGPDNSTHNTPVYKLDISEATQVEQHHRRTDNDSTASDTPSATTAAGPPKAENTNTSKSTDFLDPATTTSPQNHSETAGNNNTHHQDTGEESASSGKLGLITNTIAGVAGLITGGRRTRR
Chain of EBOV GP[change] (Ebola virus) (Q05320 502-650, chain 2 of 2): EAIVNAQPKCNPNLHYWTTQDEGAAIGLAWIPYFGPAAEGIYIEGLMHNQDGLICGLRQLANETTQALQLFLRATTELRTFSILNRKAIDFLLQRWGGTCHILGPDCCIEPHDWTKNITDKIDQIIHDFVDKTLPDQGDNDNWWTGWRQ

B1: PE-87 H108A (antibody, V domains shown)
VH: QVQLVQSGVTLVQPGGSLRVSCAASGFTFSSYAMSWVRQAPGKGLEWVSAISGLGGSTYYADSVKGRFTISRDNSKNTLYLQMNSLRAEDTAVYYCAKDHRVWAAGYAFDYWGQGALVTVSS
VL: DIVLTQSPSTLSASVGDRVTITCRASQSISSWLAWYQQKPGEAPKLLISDASSLESGVPSRFSGSGSGTEFTLTISSLQPDDFATYYCQQYYSSPTFGGGTKVEIK
Kd [1]: 18 nM

B2: PE-87 F109A (antibody, V domains shown)
VH: B1 VH with A108H, F109A
VL: B1 VL
Kd [2]: 37 nM

B3: PE-87 Y107A (antibody, V domains shown)
VH: B1 VH with Y107A, A108H
VL: B1 VL
Kd [3]: 30 nM

B4: PE-87 H100A (antibody, V domains shown)
VH: B1 VH with H100A, A108H
VL: B1 VL
Kd [4]: 4.5 nM

B5: PE-87 R101A (antibody, V domains shown)
VH: B1 VH with R101A, A108H
VL: B1 VL
Kd [5]: 9.4 nM

B6: PE-87 D110A (antibody, V domains shown)
VH: B1 VH with A108H, D110A
VL: B1 VL
Kd [6]: 1.3 nM

B7: PE-87 G106A (antibody, V domains shown)
VH: B1 VH with G106A, A108H
VL: B1 VL
Kd [7]: 0.03 nM

B8: PE-87 W103A (antibody, V domains shown)
VH: B1 VH with W103A, A108H
VL: B1 VL
Kd [8]: 1.3 nM

B9: PE-87 D99A (antibody, V domains shown)
VH: B1 VH with D99A, A108H
VL: B1 VL
Kd [9]: 74 nM

B10: PE-87 V102A (antibody, V domains shown)
VH: B1 VH with V102A, A108H
VL: B1 VL
Kd [10]: 4 nM

B11: PE-87 Y111A (antibody, V domains shown)
VH: B1 VH with A108H, Y111A
VL: B1 VL
Kd [11]: 5.9 nM
